The source of these data is the nanobody polyreactivity screen of Harvey et al. (2022).

This data set in a line: yeast display, Sf9 membrane polyspecificity reagent, FACS + sequencing; frameworks hold sequencing errors. In a few lines: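 Polyreactivity labels are assigned by the sorting gate from which each nanobody was recovered. The gates were low and high (top ~1%), set on anti-HA fluorescence for expression and streptavidin fluorescence for reagent binding. Before sorting, galactose-induced (36–48 hours) yeast display cells were stained for 1 hour at 4 °C with 10% biotinylated, detergent-solubilized Sf9 membrane reagent.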
Regarding “QVQLVESGGGLVQAGGSLRLSCPPSGTFSFYAMGWYRQAPGKERELVATIRSGGRTYYADSVKGRFTISRDNAKNTVYLQMNSLKPEDTAVYYCAAASTKLSGSDYDYWGQGTQVTVSS”, the “polyreactivity (PSR sort gate)” value is “high polyreactivity”.
The same measure for “QVQLVESGGGLVQAGGSLRLSCSASGFIFGPNAMGWYRQAPGKEMELVAAISWMGSSTYYADSVKGRFTISRDNANNTVYLQMNSLKPEDTAVYYCAADSSERRLLDFDYWGQGTNVTVSS”: “low polyreactivity”.
As for “QVQLVESGGGLVQAGGSLRLSCSASGFIFPRYTMGWYRQAPGKERELVAGITLRGGSTYYADSVKGRFTISRDNAKNTVYLQMNSLKPDDTAVYYCARGISRGRSFGIGYDYWGQGTQVTVSS”, the entry is “low polyreactivity”.
As for “QVQLVESGGGLVQAGGSLRLSCSASGFTFRYYTMGWYRQAPGKERELVAAISRSSGSRTYYADSVKGRFTISRDNAKNTVYLQMNSLKPEDTAVYYCNADPAYQFDYWGQGTQVTVSS”, the entry is “high polyreactivity”; as for “QVQLVESGGGLVQAGGSLRLSCSASGFTFYRNAMGWYRQAPGKERELVASISRSGGSTYYADSVKGRFTISRDNAKNTVYLQMNSLKPEDTAVYYCAADLCWIYPHKYYYWGQGTQVTVSS”, “high polyreactivity”; as for “QVQLVESGGGLVQAGGSLRLSCSASGGTFEFYTMGWYRQAPGKERELVAAISWSGSSTYYADSVKGRFTISRDNAKNTVYLQMNSLKPEDTAVYYCAAYPRPYIGYTDGYVWYEFDYWGQGTQVTVSS”, “low polyreactivity”.
For “QVQLVESGGGLVQAGGSLRLSCSASGIIFSTYAKGWYRQAPGKERELVAAITSTGSTNYADSVKGRFTISRDNAKNTVYLQLNSLKPEDTAVYYCAARYAGPSPTDTGHDYWGQGTQVTVSS”, the “polyreactivity (PSR sort gate)” value is recorded as “low polyreactivity”.
Turning to “QVQLVESGGGLVQAGGSLRLSCSASGLTFKENAMGWYRQAPGTERELVAAISKGGGSTFYADSVKGRFTISRDNAKNTVYLQMNTLKPEDTAVYYCNADVGYRGGEEDYWGQGTQVTVSS”, the “polyreactivity (PSR sort gate)” value was “low polyreactivity”.
The same measure for “QVQLVESGGGLVQAGGSLRLSCSASGLTFNFNAMGWYRQAPGKERELVAAISYRAGSTYYADSVKGRFTISRDNAKNTVYLQMNSLKPEDTAVYYCAADGYYYVKSGTYWSDYWGQGTQVTVSS”: “low polyreactivity”; for “QVQLVESGGGLVQAGGSLRLSCSASGNTIRYYALGWYRQAPGKERELVATITSGGRTYYADSVKGRFTISRDNAKNTVYLQMNSLKPEDTAVYYCAAGSRSDARRYYYWGQGTQVTVSS”: “low polyreactivity”; for “QVQLVESGGGLVQAGGSLRLSCSASGRIFGRYAMGWYRQAPGKERELVAAISASGGSTYYADSVKGRFTISRDNAKNTVYLQMNSLKPEDTAVYYCAADAPAEYYWGQGTQVSVSS”: “low polyreactivity”.
As to “QVQLVESGGGLVQAGGSLRLSCSASGRIFRFYGMGWYRQAPGKDRELVAAISSRGGSTYYADSVKGRFTISRDNAKNTVYLQMNSLKPEDSGVYYCAASGAFWYPYDYWGQGTQVTVSS”, the “polyreactivity (PSR sort gate)” value is “high polyreactivity”.
As for “QVQLVESGGGLVQAGGSLRLSCSASGRIISFYVMGWYRQAPGKDRELVAAISLSGGSTYYADSVKGRFTISRDNAKNTVYLQMNSLKPEDTAVYYCAADQTLVGLPYNYWGQGTQLTVSS”, the entry is “high polyreactivity”.
Turning to “QVQLVESGGGLVQAGGSLRLSCSASGRNFKYYAMGWYRKAPGKERELVAAITSTGGSTYYADSVKGRFTISRDNGKNTVYLQLNSLKPEDTAVYYCNRDTQYRDRSDNHWGQGTQVTVSS”, the “polyreactivity (PSR sort gate)” value was “high polyreactivity”.
For the sequence “QVQLVESGGGLVQAGGSLRLSCSASGRTFGGNAMGWSRPAPGKERELVAAIARSGGTTYYADSVKGRFTISRDNAKNTVYLQMNSLKPEDTAVYYCNTRRYGAMYYWGQGTQVTVSS”, the “polyreactivity (PSR sort gate)” value is recorded as “high polyreactivity”.
As for “QVQLVESGGGLVQAGGSLRLSCSASGRTFHYYAMGWYRQAPGKERELVAVIRYSGGRTYYADSVKGRFTISRDNAKNTVYLQMNSLKPEDTAVYYCNKGRWRTDQPVYLIAFDYWGQGTQVTVTS”, the entry is “low polyreactivity”.
The same measure for “QVQLVESGGGLVQAGGSLRLSCSASGRTFSAYAMGWDRPAPGKERELVARITSVDSTNYADSVKGRFTISRDNAKNSVYLKMNSLTPEDTAVYYCNATFCYPFFDYDDYWGQGTQVTVSS”: “low polyreactivity”.
Turning to “QVQLVESGGGLVQAGGSLRLSCSASGRTFYEYAMGWYIQAPGKERELVAGITSGGSTNYADSVKGRFTISRDNAKNTVYLQMNSLKPEDTAVYYCAATYWGYEYDYWGQGTQVTVSS”, the “polyreactivity (PSR sort gate)” value is recorded as “low polyreactivity”.
As for “QVQLVESGGGLVQAGGSLRLSCSASGSIFGIYTMGWYRQAPGKERELVAAINSGGSTNYADSVKGRFTISRDNAKNTVYLQMNSLKPEDTAVYYCAAGGSSSWAFNYWGQGTQVTVSS”, the entry is “low polyreactivity”.
As for “QVQLVESGGGLVQAGGSLRLSCSASGSIFLYYTMGWYRQEPGKERELVAAITWSGASTYYADSVKGRFTISRDNGKITVYLQMNSLKPEDTAVYYCATRYRYRYCGQGTQVTVSS”, the entry is “high polyreactivity”; as for “QVQLVESGGGLVQAGGSLRLSCSASGSIFPTYAMGWYRKAPGKERELVAAIRSGSNTYYADSVKGRFTISRDNAKNTVYLQMNSLKPEDTAVYYCNKATNLSGGYDSWGQGTQVTVSS”, “low polyreactivity”.
The same measure for “QVQLVESGGGLVQAGGSLRLSCSASGSIFRFNAKGWYRQAPGKERELVASSRWDTASTYYADSVKGRFTISRDNAKNTVYLQMNSLKPEDTAVYYCNAGRPRFYRSRWYYYGYGYWGQGTQVTVSS”: “high polyreactivity”; for “QVQLVESGGGLVQAGGSLRLSCSASGSIFRYYAMGWYRQPPGKEREFVASITYRGGRTYYADSVKGRFTISRDNAKKTVYLQMNSLKPEDTAVYYCAARTRAGAWTSKYHDYWGEGTQVTVSS”: “high polyreactivity”.
In the case of “QVQLVESGGGLVQAGGSLRLSCSASGSIFSHYVMGWYRQAPGKERELVAAISPSGDSTYYADSVKGRFTISRDNAKNTVYLQMNSLKPEDTAVYYCNAGFGQYRYRGHDDYWGQGTQVTVSS”, the “polyreactivity (PSR sort gate)” value is “high polyreactivity”.
In the case of “QVQLVESGGGLVQAGGSLRLSCSASGSIFWYNAMGWYRHAPGKERELVAAISRSGSRTYYADSVKGRFTISRDYAKNTVYLQMNSLKPEDTAVYYCARVRPRVLYFVLHYDYWGQGTQVTVSS”, the “polyreactivity (PSR sort gate)” value is “high polyreactivity”.
The same measure for “QVQLVESGGGLVQAGGSLRLSCSASGSIFYTYAMGWYRQAPGKERELVAAISRSGGITYYADSVKGRFTISRDNAKNTVYLEMNSLKPEDTAVYFCNVASASPGRYDYWGQGTQVTLSS”: “high polyreactivity”; for “QVQLVESGGGLVQAGGSLRLSCSASGSISYYNAMAWYRQAPGKERELVASITRRGGTTNYAESVKGRFSISRDNAKHTVYLQMNSLKPEDTAVYNCNAEYPYWTPDYNYRFDYWGQGTQVTVSS”: “high polyreactivity”; for “QVQLVESGGGLVQAGGSLRLSCSASGSTFGQYAMGWYRHAPGKERELVAAISRGGGSTYYADSVKGRFTISRDNAKYTVYLQMNSLKPEDTAVYYCNALSARSYYWGQGTQVTVSS”: “high polyreactivity”.
As for “QVQLVESGGGLVQAGGSLRLSCSASGSTFHPYAMGWYRQAPGKERELVAAINSGDNTYYADSVKGRFTITRDNAKNTVYLQMNSLKPEDTAVYYCAVRYWDESHTEYDYWGQGTQVTVSS”, the entry is “low polyreactivity”; as for “QVQLVESGGGLVQAGGSLRLSCSASGSTFPSNAMGWYRQAPGKERELVAAIRGRGGSTYYADSVKGRFTISRDNAKNTVYLQMNSLKPEDTAVYYCAKKVRSYVRWEYDYWGQGTQVTVSS”, “low polyreactivity”.
The same measure for “QVQLVESGGGLVQAGGSLRLSCSASGSTFSRYAMGWYRQAPGKEREFVAAISQRGGSTYYADSVKGRFTISRDNAKNTVYLQMNSLKPEDTAVYYCAARRVPQLDDYWGQGTQVTVSS”: “high polyreactivity”.
Turning to “QVQLVESGGGLVQAGGSLRLSCSASGSTIRDYAMGWYRQAPGKERELVAVIDNSGGRTYYADSVKGRFTISRDNAKNTVYLQMNSLKPEDTAVYYCNTRRIAQYGYWGQGTEVTVSS”, the “polyreactivity (PSR sort gate)” value is listed as “high polyreactivity”.
As for “QVQLVESGGGLVQAGGSLRLSCSASGTFYGYAMAWSRQAPGKERELVASSTWGGGRTYYADSVKGRFTTSRDNAKNTVYLQMNSLKPEDTAVYYCATRSRPQYNKYDYWGQGTQVTVSS”, the entry is “high polyreactivity”; as for “QVQLVESGGGLVQAGGSLRLSCSASGTTFRGYAMGWYRQAPGKEREVVAAISNNGVTTYYADSVKGRFTISRDNAKNTVYLQMNSLKPEDAAVYYCAAGLYHGFAASDEIRGDYWGLGTQVTVSS”, “low polyreactivity”; as for “QVQLVESGGGLVQAGGSLRLSCSATGNTLDVNARGWYRQAPGKERELVAAITSGGSTNYADSVKVRFTISRDNAKNTVYLQMNSLKPEDTAVYYCAATAALGRPEYYWGQGSQVTVSS”, “low polyreactivity”.
The same measure for “QVQLVESGGGLVQAGGSLRLSCTASGFTFFSNAMGWYRQAPVKEREFVASISRSGGRTYYADSVKGRFTISRDNEKNTVYLQMNSLKPEDTAVYYCAADVPYYLHNPRYGYWGQGTQVTVSS”: “high polyreactivity”.
For the sequence “QVQLVESGGGLVQAGGSLRLSCTASGIIFGTFAMGWYRQAPGKERELVAAISSSGVSTYYADSVKGRFTISRDNAKNTVYLQMNSLKPEDTAVYYCAAPLHYGYYYWGQGTQVTVSS”, the “polyreactivity (PSR sort gate)” value was “high polyreactivity”.
As to “QVQLVESGGGLVQAGGSLRLSCTASGRIFTRNAMGWYRQAPGKERELVASISRTGTSTYYADSVKGRFTISRDNEKNNVYLQMNSLKPEDTAVYYFNARRTSVRFDYWGQGTQVTVSS”, the “polyreactivity (PSR sort gate)” value was “high polyreactivity”.
“QVQLVESGGGLVQAGGSLRLSCTASGRTLYNYTMGWYRQAPGKERELVATINFSGGSTYYADSVKGRFTISRDNAKNTVYLQMNSLKPEDTAVYYCNARGYHYAYKGAYLGDYYWGQGTQVTVSS”: the “polyreactivity (PSR sort gate)” value was “low polyreactivity”.
As for “QVQLVESGGGLVQAGGSLRLSCTASGSIFVTNAMGWYRQAPGKERELVAAITWGGGNTTYADSVKGRFTISRDNAKNTVDLQMNSLKPEDTAVYYCAKDPYVNRDYWGQGTQVTVSS”, the “polyreactivity (PSR sort gate)” value is given as “low polyreactivity”.
As for “QVQLVESGGGLVQAGGSLRLSCVASGLTQPYAMGWYRQAPGKERELVAAISSSGGRTSYADSVKGRFTISRDNAKNTVYLQMNSLKPEDTAVYYCNVDLGVNGDYWGQGTQVTVSS”, the entry is “low polyreactivity”.
